From article PMC3963495

Biological target: microtubules (polymer of tubulin)
Experiment: single-molecule TIRF microscopy on microtubules

microtubules (polymer of tubulin), sequence (P68363 whole entry, chain 1 of 2): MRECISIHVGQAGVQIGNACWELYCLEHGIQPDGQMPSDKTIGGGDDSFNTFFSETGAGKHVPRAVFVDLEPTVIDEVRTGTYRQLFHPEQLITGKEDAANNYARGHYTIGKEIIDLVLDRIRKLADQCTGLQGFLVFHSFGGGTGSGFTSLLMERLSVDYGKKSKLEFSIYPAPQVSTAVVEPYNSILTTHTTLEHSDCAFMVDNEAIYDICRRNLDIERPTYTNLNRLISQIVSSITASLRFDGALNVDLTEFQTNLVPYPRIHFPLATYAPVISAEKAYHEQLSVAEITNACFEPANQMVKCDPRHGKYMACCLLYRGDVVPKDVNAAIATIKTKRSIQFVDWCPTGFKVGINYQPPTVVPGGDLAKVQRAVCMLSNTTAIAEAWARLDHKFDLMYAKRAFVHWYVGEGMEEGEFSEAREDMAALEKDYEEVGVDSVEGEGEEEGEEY
microtubules (polymer of tubulin), sequence (A8K068 whole entry, chain 2 of 2, further chain): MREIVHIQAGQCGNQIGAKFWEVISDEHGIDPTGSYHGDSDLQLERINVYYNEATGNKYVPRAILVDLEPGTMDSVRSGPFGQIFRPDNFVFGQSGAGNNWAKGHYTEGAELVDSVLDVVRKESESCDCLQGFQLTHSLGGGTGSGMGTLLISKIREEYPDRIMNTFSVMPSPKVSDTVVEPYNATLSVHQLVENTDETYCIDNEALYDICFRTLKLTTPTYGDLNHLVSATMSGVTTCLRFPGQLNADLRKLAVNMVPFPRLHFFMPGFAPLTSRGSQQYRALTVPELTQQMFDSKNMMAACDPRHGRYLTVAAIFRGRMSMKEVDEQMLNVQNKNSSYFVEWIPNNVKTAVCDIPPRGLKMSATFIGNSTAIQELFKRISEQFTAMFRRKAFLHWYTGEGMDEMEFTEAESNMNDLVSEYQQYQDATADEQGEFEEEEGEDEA

## EB1_(FKBP) (human EB1 fused at its C-terminus to FKBP)
  dwell time: 53 ms
  mean dwell time: 0.054 s
